Our source for the fold increase of binding when S protein is bound to WRAIR-2063 values is PMC10373542.

In this assay the target is SARS-CoV-2 WA-1 stabilized S trimer, HexaPro (SARS-CoV-2) (UniProt P0DTC2). The experiment in a line: BLI. Background: In BLI a coated tip is dipped into the sample, and binding shifts an interference pattern.

CR3022 monoclonal antibody had a fold increase of binding when S protein is bound to WRAIR-2063 of 6 fold.
